According to the supplement of paper PMC11811203:

B1: THAP1; numbered along this chain (parent)
chain: MVQSCSAYGCKNRYDKDKPVSFHKFPLTRPSLCKEWEAAVRRKNFKPTKYSSICSEHFTPDCFKRECNNKLLKENAVPTIFLCTEPHDKKEDLLEPQEQLPPPPLPPPVSQVDAAIGLLMPPLQTPVNLSVFCDHNYTVEDTMHQRKRIHQLEQQVEKLRKKLKTAQQRCRRQERQLEKLKEVVHFQKEKDDVSERGYVILPNDYFEIVEVPA

Variants of: B1
Assay: THAP1 transcriptional activity (GFP+/GFP- enrichment relative to wild-type constructs) (ratio to WT); higher = more THAP1 activity (PSMB5 reporter activation)
Settings: with PSMB5 promoter-GFP reporter
How it was run: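 A lentiviral site-saturation library covering residues 2–213 of human THAP1, with each position changed to all 20 amino acids, was transduced in duplicate at MOI ~0.3 into THAP1-knockout HEK-293T cells with mClover3 knocked in at endogenous PSMB5. Five days later, BFP+ cells were sorted into GFP-dim and GFP-bright bins and variants were counted by Illumina sequencing of genomic DNA amplicons. Activity is the bright/dim read fold change averaged over replicates and divided by the mean of wild-type synonymous constructs.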

Variant | THAP1 transcriptional activity
T165E | 0.6
T165P | 0.196
F81L | 0.224
F81S | 0.443
R146Q | 0.849
K190H | 0.708
K190Q | 0.807
V20M | 0.155
V20I | 1.71
V20G | 0.125
V20E | 0.148
V20R | 0.261
V20L | 0.297
V109A | 1.33
R41K | 1.05
K188H | 0.646
S51R | 0.0935
S51Q | 0.0846
S51I | 0.124
R171N | 0.229
V199K | 0.555
I208D | 0.924
I208S | 1.17
I208P | 0.675

Variant | THAP1 transcriptional activity
E85I | 1.04
E85M | 0.346
E85P | 1.01
L129M | 0.714
L123R | 1.45
L123V | 1.01
N203E | 1.14
F206D | 1.24
F206V | 1.41
F206N | 0.873
C170Q | 0.604
C170A | 0.663
C33I | 0.159
E195I | 0.587
E195V | 1.02
K164H | 0.316
K164I | 0.252
K164M | 0.258
H57G | 0.0681
A76G | 0.221
Q99F | 0.667
Q99E | 1.22
E178A | 0.976
Y137N | 0.195

Variant | THAP1 transcriptional activity
Y137K | 0.211
Q176K | 1.54
Q176W | 0.223
I53Y | 0.141
K43Y | 0.365
E56S | 0.473
P126L | 0.216
P126V | 0.434
C133G | 0.883
C133Y | 0.913
V2M | 0.183
V2P | 0.71
R160V | 0.339
R160P | 0.171
D204P | 0.777
N136R | 0.364
N136T | 0.311
N136G | 0.109
R42C | 0.114
Q187P | 0.385
Q187L | 0.681
Q187H | 0.853
Q187G | 0.874
T138H | 0.837

Variant | THAP1 transcriptional activity
T138R | 0.375
T138P | 0.286
D88M | 0.615
D88W | 0.937
Q124Y | 0.592
H23I | 0.0266
K90E | 2.91
D92T | 0.984
L118W | 0.319
I116P | 0.93
I116E | 0.841
M143S | 0.971
E140R | 1.3
E140H | 0.784
E140D | 0.727
E140L | 1.81
C62N | 0.487
V40D | 0.0854
A114H | 0.483
P47C | 0.229
P47L | 0.242
P47V | 0.712
Q151C | 0.782
Q151V | 0.675

Variant | THAP1 transcriptional activity
Q151P | 0.303
E182V | 0.698
K162E | 0.269
D113W | 0.173
L100W | 0.65
L100S | 2.08
L27D | 0.111
D17F | 0.706
H135F | 0.196
H135V | 0.227
K16H | 0.0905
A39P | 0.143
P86N | 0.592
P86I | 2.01
K73F | 0.19
K73E | 0.261
K73Q | 0.273
L163F | 0.23
V184E | 0.657
K89C | 1.4
F22L | 0.117
F22H | 0.12
F22S | 0.0454
F22Y | 0.288

Variant | THAP1 transcriptional activity
V131C | 0.427
V131G | 0.244
V131A | 0.451
E153Y | 0.404
E153Q | 0.585
E153M | 0.461
E153N | 0.512
E35W | 0.203
E35A | 0.556
E35S | 0.44
I80E | 0.459
I80F | 0.463
I80S | 0.272
I80C | 0.239
I80P | 0.235
I80R | 0.963
W36Y | 0.178
E91Q | 1.02
E91M | 0.596
E91L | 0.546
N69H | 0.344
N69L | 0.301
P101T | 1.5
P101W | 0.985

Variant | THAP1 transcriptional activity
Q111L | 0.357
Q111I | 0.508
Q111H | 0.97
R175L | 0.692
R175W | 0.507
T48G | 0.419
P30R | 0.396
P30M | 0.245
T28H | 0.391
T28N | 0.889
T28C | 0.495
L152A | 0.28
L152G | 0.249
L152C | 0.209
L152K | 0.189
A213K | 1.13
K158V | 0.617
T125R | 0.432
T79G | 0.301
E157A | 1.14
E157Q | 0.766
P106D | 1.76
Q167R | 0.415
V112S | 1.12

Variant | THAP1 transcriptional activity
R196D | 0.823
R196N | 0.869
V183G | 0.742
K181L | 0.421
I149N | 0.465
E174F | 0.564
L72S | 0.092
L72V | 0.172
T142P | 0.997
A166V | 0.718
A166M | 0.882
A166L | 0.89
C54G | 0.0692
C54W | 0.107
C54L | 0.0556
C54Q | 0.0652
C54R | 0.0929
C10D | 0.129
C10Q | 0.125
S6Y | 0.202
S6M | 0.172
Y8P | 0.58
R169F | 0.246
C83N | 1.13

Variant | THAP1 transcriptional activity
C83I | 1.18
C83Q | 3.29
A7E | 0.154
A7V | 0.612
A7C | 0.163
Q3E | 0.155
Q3R | 0.187
Q3A | 0.849
Q3G | 0.159
N68S | 0.192
N68R | 0.161
D134P | 0.296
D134V | 0.123
D192T | 1.12
K18V | 0.618
E66M | 0.558
A38Q | 0.891
A38M | 0.788
P202E | 1.05
H87E | 2.22
H87A | 1.39
K70Y | 0.12
K70R | 2.14
K70F | 0.163

Variant | THAP1 transcriptional activity
K70L | 0.121
Q155Y | 0.71
Q155P | 0.175
S55F | 0.084
S55M | 0.0662
L119N | 1.09
P103M | 0.728
P103T | 1.19
P103H | 0.719
P103Y | 0.902
F63G | 0.1
F63S | 0.0787
F58H | 0.131
F58G | 0.064
P96A | 1.82
P96C | 0.965
S21I | 0.128
D191P | 1.02
P122Y | 0.254
P122G | 0.667
C5D | 0.262
C5H | 0.127
Q145R | 0.646
S31A | 1.03

Variant | THAP1 transcriptional activity
S31R | 1.01
S31H | 0.565
P78G | 0.102
M120N | 1.38
F45I | 0.0544
F45H | 0.161
F45E | 0.0902
Y205V | 0.976
Y205M | 1.5
Y205D | 0.754
G117F | 0.352
Q154E | 0.776
L159D | 0.213
H150L | 0.769
H150R | 1.19
C67K | 0.472
L71V | 1.47
L71R | 0.39
L71A | 0.407
L93N | 1.51
L93K | 0.898
Y198K | 0.631
Y198C | 0.806
P60R | 0.718

Variant | THAP1 transcriptional activity
K46E | 0.212
K46M | 0.442
N12F | 0.112
N12E | 0.111
N12Y | 0.149
V127D | 0.851
V127L | 0.775
V127Y | 0.411
V127C | 0.636
V127Q | 1.02
H185A | 1.58
L32F | 0.14
L32E | 0.135
D141V | 0.352
D141C | 0.355
H144G | 1.11
H144S | 0.747
L82W | 2.23
L82D | 1.34
L82K | 0.792
P107F | 0.519
Q173T | 1.1
F25D | 0.123
F25I | 0.145

Variant | THAP1 transcriptional activity
K49C | 0.185
K34T | 0.337
P212Q | 1.45
V209F | 0.531
D61R | 0.22
D61S | 0.312
P108D | 1.66
P108V | 2.03
L201T | 0.898
L201D | 0.836
L201F | 0.809
V156A | 0.555
P121E | 0.735
P121W | 0.0793
Q168P | 0.186
E98I | 1.74
K179G | 0.4
K179W | 0.364
E95D | 1.16
K147W | 0.458
K147A | 0.537
K147V | 0.383
K147T | 0.664
V193L | 1.21

Variant | THAP1 transcriptional activity
V211L | 1.38
V211I | 1.34
V211C | 0.988
V211W | 0.56
F132E | 0.425
T84Q | 1.65
T84D | 0.604
R65F | 0.208
R65Y | 0.369
A115D | 1.12
A115C | 0.428
A115S | 0.742
L105W | 0.491
L105H | 1.54
S110D | 0.782
S110E | 0.424
N128L | 0.284
N128F | 0.259
N128K | 0.645
L180Q | 0.399
Q97C | 1.33
I200C | 0.615
